Source: PMC8649778

Tests used:
[1] = biological target: APRc_(110–231)(D140N)His, active site mutant of the soluble domain of APRc (UniProt Q92FY8); test: shift of migration in nonreducing SDS-PAGE with Western blot
human IgG (human) = test: BLI

Row | Substance | stoichiometry N [1] | Kd (human IgG (human)) [µM]
1 | APRc_(110–231)(D140N)His, active site mutant of the soluble domain of APRc (from UniProt Q92FY8 110-231) (domain or fragment) | 2 | 
2 | APRc_(110–231)His, soluble domain of APRc fused to a C-terminal His tag (from UniProt Q92FY8 110-231) (domain or fragment) |  | 12.6
